Molecular target: Grb2, endogenous in Cos-7 cells (African green monkey (endogenous in Cos-7))
Assay: co-IP

“Sos-1, endogenous in Cos-7 cells (natural protein)” showed a fold excess of the Sos-1–Grb2 complex over the Sos-1–E3b1 complex (co-IP) of 10 fold.

Reference: PMC2173577
